In assay [1] the target is T1, human IL-36R on the cell surface (HEK-Blue IL-36 cells, HaCAT cells, human CD14+ monocytes) (human, UniProt Q9HB29 20-575).
T1 sequence (looked up): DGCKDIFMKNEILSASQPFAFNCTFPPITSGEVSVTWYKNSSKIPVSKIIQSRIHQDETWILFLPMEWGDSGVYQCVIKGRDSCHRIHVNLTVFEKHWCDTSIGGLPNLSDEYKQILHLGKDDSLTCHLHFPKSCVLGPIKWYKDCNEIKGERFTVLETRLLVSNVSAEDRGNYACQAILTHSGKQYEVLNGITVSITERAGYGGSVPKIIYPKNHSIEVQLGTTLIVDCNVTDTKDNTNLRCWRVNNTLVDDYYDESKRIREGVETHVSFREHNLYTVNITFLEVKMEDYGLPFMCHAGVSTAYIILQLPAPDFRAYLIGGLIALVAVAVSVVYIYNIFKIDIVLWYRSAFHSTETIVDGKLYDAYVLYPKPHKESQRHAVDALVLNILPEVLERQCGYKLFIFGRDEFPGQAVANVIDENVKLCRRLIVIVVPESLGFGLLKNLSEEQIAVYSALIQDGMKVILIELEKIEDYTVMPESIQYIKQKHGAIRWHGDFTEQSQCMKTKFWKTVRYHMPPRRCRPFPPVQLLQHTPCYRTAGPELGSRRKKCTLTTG
The assay can be described thus: cell-based or functional assay.

In assay [2] the target is T2, hIL-36R-His (extracellular domain of human IL-36R with C-terminal His tag) (human (homo sapiens), UniProt Q9HB29 20-335).
T2 construct: also called human hIL-36R-His
T2 sequence: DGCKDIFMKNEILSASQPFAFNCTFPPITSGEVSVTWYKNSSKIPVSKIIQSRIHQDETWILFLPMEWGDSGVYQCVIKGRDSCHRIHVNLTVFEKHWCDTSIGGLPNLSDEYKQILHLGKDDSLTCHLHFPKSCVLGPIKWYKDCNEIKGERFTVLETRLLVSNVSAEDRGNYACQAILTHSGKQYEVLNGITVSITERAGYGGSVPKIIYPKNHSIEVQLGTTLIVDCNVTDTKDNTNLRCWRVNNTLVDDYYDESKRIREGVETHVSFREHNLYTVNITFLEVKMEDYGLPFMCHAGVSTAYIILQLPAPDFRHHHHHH
Put plainly: SPR (Biacore T200), antibody captured by anti-human Fc, hIL-36R-His as analyte, 1:1 model. Background: SPR reads the build-up and loss of mass on a sensor chip optically.

Assay [3] concerns the target T2, hIL-36R-His (extracellular domain of …). Described as above. The source holds these as a separate data set.
The target in assay [4] is T1, human IL-36R on the cell surface …. Put plainly: cell-based or functional assay. This is another data set of the same source.
Assay [5] addresses T3, hIL-1R3-His (extracellular domain of human IL-1R3 with C-terminal His tag) (human (homo sapiens), UniProt Q9NPH3 21-359).
T3 sequence: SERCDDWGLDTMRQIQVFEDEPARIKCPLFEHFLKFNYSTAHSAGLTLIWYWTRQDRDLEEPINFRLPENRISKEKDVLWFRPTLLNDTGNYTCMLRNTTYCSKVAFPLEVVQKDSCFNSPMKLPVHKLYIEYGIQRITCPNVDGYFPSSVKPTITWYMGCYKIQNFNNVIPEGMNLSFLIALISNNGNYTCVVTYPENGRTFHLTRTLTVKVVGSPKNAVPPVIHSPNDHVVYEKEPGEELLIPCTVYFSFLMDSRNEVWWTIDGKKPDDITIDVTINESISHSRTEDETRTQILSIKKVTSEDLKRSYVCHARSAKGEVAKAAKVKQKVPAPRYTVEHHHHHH
Put plainly: SPR (Biacore T200), antibody captured by anti-human Fc, hIL-1R3-His as analyte, 1:1 model.

The target of assay [6] is T1, human IL-36R on the cell surface …. Put plainly: cell-based or functional assay. The source holds these as a separate data set.
Assay [7] concerns the target T3, hIL-1R3-His (extracellular domain of …). The assay can be described thus: SPR (Biacore T200), antibody captured by anti-human Fc, hIL-1R3-His as analyte, 1:1 model. The source holds these as a separate data set.
The target is the same in assay [8]. The description is as above. This is another data set of the same source.
For assay [9], the target named is T4, human IL-1R3 on the cell surface (HaCAT cells, PBMC/NK cells, MRC-5 cells) (human, UniProt Q9NPH3 21-570).
T4 sequence (looked up): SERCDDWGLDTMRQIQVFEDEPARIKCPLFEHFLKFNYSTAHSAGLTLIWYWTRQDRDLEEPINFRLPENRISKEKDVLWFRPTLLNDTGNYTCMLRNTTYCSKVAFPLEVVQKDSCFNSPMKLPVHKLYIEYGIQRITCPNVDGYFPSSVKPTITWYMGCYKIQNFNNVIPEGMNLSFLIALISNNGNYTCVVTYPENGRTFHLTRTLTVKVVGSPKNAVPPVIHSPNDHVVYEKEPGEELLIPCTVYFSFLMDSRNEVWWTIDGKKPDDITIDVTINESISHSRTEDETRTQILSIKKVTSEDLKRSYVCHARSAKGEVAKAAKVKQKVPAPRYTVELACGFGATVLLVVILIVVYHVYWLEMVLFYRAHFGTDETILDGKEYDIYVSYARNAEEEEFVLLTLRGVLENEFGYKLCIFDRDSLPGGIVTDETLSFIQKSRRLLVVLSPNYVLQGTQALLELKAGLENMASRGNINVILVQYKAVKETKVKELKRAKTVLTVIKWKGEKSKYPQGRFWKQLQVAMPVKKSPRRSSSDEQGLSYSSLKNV
Put plainly: cell-based or functional assay.

What is called Kd is the concentration at which binding is half-saturated. Lower therefore signals a tighter complex. A word on the koff: it is the rate constant with which the complex falls apart. The kon is the rate constant with which the complex forms. A low value points to slower complex formation.

Read-outs that look alike come from different tables or passages of the source.

B1: R72B7VH+L36E9VK (antibody, V domains shown)
VH: QVQLVQSGAEVKKPGASVKVSCKASGYSFTSSWIHWVKQAPGQGLEWMGEINPGNVRSNYNENFRNKVTMTVDTSISTAYMELSRLRSDDTAVYYCTVINYGEPYFASWGQGTLVTVSS
VL: EIVLTQSPGTLSLSPGERATLSCRASQSVIGSYLAWYQQKPGQAPRLLIYSASKLASGIPDRFSGSGSGTDFTLTISRLEPEDFAVYYCQQDTRYPITFGQGTKVEIK
notes: also called R72B7VH+L36E9VK monoclonal antibody
Regarding B1, in [1], the “IC50 for inhibiting IL-36α from inducing hIL-8 secretion by HaCAT cells” value (“IC50 for inhibiting IL-36α” below) stood at 0.508 nM, the “IC50 for inhibiting IL-36β from inducing hIL-8 secretion by HaCAT cells” value (“IC50 for inhibiting IL-36β” below) came out at 0.511 nM and the “IC50 for inhibiting IL-36γ from inducing hIL-8 secretion by HaCAT cells” value (“IC50 for inhibiting IL-36γ” below) was found to be 3.65 nM. In addition, in assay [2], the dissociation constant (Kd) turned out to be 1.65 nM, the koff was determined as 5.4e-05 s⁻¹ and the association rate constant (kon) was 32800 M⁻¹ s⁻¹.

B2: R49E11VH-h3+L36E9VK (antibody, V domains shown)
VH: QVQLVQSGAEVKKPGASVKVSCKASGYSFTSSWIHWVRQAPGQGLEWMGEINPGSGRSNYNENFQGRVTMTVDTSISTAYMELSRLRSDDTAVYYCTVVFYGEPYFPFWGQGTLVTVSS
VL: EIVLTQSPGTLSLSPGERATLSCRASQSVIGSYLAWYQQKPGQAPRLLIYSASKLASGIPDRFSGSGSGTDFTLTISRLEPEDFAVYYCQQDTRYPITFGQGTKVEIK
In assay [2], B2 yielded a Kd of 11.4 nM, a koff of 9.94e-05 s⁻¹ and an on-rate (kon) of 8690 M⁻¹ s⁻¹.

B3: Crossmab bispecific antibody (R1B9VH-h1+R1B9VK-h1-Fab-cross+R49E11VH-h3+L26B11VK-Fab) (bispecific antibody, human IgG1, kappa)
heavy 1: QVQLVQSGAEVKKPGASVKVSCKASGYSFTSSWIHWVRQAPGQGLEWMGEINPGSGRSNYNENFQGRVTMTVDTSISTAYMELSRLRSDDTAVYYCTVVFYGEPYFPFWGQGTLVTVSSASTKGPSVFPLAPSSKSTSEGTAALGCLVKDYFPEPVTVSWNSGALTSGVHTFPAVLQSSGLYSLSSVVTVPSSSLGTQTYICNVDHKPSNTKVDKTVEPKSCDKTHTCPPCPAPEFEGGPSVFLFPPKPKDTLMISRTPEVTCVVVDVSQEDPEVQFNWYVDGVEVHNAKTKPREEQYNSTYRVVSVLTVLHQDWLNGKEYKCKVSNKALPASIEKTISKAKGQPREPQVCTLPPSQEEMTKNQVSLSCAVKGFYPSDIAVEWESNGQPENNYKTTPPVLDSDGSFFLVSKLTVDKSRWQEGNVFSCSVMHEALHNHYTQKSLSLSPGK
light 1: EIVLTQSPGTLSLSPGERATLSCRASQSVIYSYLAWYQQKPGQAPRLLIYSASKRASGIPDRFSGSGSGTDFTLTISRLEPEDFAVYYCQQHAGIPVTFGQGTKVEIKRTVAAPSVFIFPPSDEQLKSGTASVVCLLNNFYPREAKVQWKVDNALQSGNSQESVTEQDSKDSTYSLSSTLTLSKADYEKHKVYACEVTHQGLSSPVTKSFNRGEC
heavy 2: EVQLVESGGGLVQPGGSLRLSCAASGFTFSSYAMSWVRQAPGKGLVWVAEISRGGSHTYYPDTVTGRFTISRDNAKNTLYLQMNSLRAEDTAVYYCARSYGNYPFDYWGQGTTVTVSSASVAAPSVFIFPPSDEQLKSGTASVVCLLNNFYPREAKVQWKVDNALQSGNSQESVTEQDSKDSTYSLSSTLTLSKADYEKHKVYACEVTHQGLSSPVTKSFNRGECDKTHTCPPCPAPEFEGGPSVFLFPPKPKDTLMISRTPEVTCVVVDVSHEDPEVKFNWYVDGVEVHNAKTKPREEQYNSTYRVVSVLTVLHQDWLNGKEYKCKVSNKALPASIEKTISKAKGQPREPQVYTLPPCREEMTKNQVSLWCLVKGFYPSDIAVEWESNGQPENNYKTTPPVLDSDGSFFLYSKLTVDKSRWQQGNVFSCSVMHEALHNHYTQKSLSLSPGK
light 2: EIVLTQSPATLSLSPGERATLSCSASSSVSYMYWYQQKPGQAPRLLIYDTSNLASGIPARFSGSGSGTDFTLTISSLEPEDFAVYYCQQWSSYPLTFGQGTKLEIKSSASTKGPSVFPLAPSSKSTSGGTAALGCLVKDYFPEPVTVSWNSGALTSGVHTFPAVLQSSGLYSLSSVVTVPSSSLGTQTYICNVNHKPSNTKVDKRVEPKSC
notes: also called IL-36R×IL-1R3 Crossmab bispecific antibody
In [3], B3 came in with a Kd of 0.669 nM, a koff of 4.37e-05 s⁻¹ and an association rate constant (kon) of 65400 M⁻¹ s⁻¹. Moreover, in [4], the “fold increase of activity by IC50 against R49E11VH-h3+L26B11VK, IL-36α, HaCAT hIL-8 secretion” value is roughly 3 fold; the “fold increase of activity by IC50 against R49E11VH-h3+L26B11VK, IL-36β, HaCAT hIL-8 secretion” value is roughly 13 fold; the “fold increase of activity by IC50 against R49E11VH-h3+L26B11VK, IL-36γ, HaCAT hIL-8 secretion” value was roughly 103 fold. In addition, in [5], the affinity, expressed as Kd, was 0.761 nM; the koff turned out to be 0.000155 s⁻¹; the on-rate constant (kon) was found to be 203000 M⁻¹ s⁻¹. Moreover, in assay [6], the “IC50 for inhibiting IL-36α” value was found to be 0.0183 nM, the “IC50 for inhibiting IL-36β” value worked out at 0.0211 nM and the “IC50 for inhibiting IL-36γ” value amounted to 0.0184 nM.

B4: R1B9VH-h1+R1B9VK-h1 (antibody, V domains shown)
VH: EVQLVESGGGLVQPGGSLRLSCAASGFTFSSYAMSWVRQAPGKGLVWVAEISRGGSHTYYPDTVTGRFTISRDNAKNTLYLQMNSLRAEDTAVYYCARSYGNYPFDYWGQGTTVTVSS
VL: EIVLTQSPATLSLSPGERATLSCSASSSVSYMYWYQQKPGQAPRLLIYDTSNLASGIPARFSGSGSGTDFTLTISSLEPEDFAVYYCQQWSSYPLTFGQGTKLEIK
notes: also called humanized IL-1R3 antibody; R1B9VH-hl+R1B9VK-h1
Take B4: in assay [7], the equilibrium dissociation constant (Kd) turned out to be 1.12 nM, the off-rate constant (koff) was found to be 0.000111 s⁻¹ and the on-rate constant (kon) turned out to be 99200 M⁻¹ s⁻¹. For the same molecule, in assay [8], binding was put at a Kd of 1.45 nM, the koff came to 0.000153 s⁻¹ and the kon is 106000 M⁻¹ s⁻¹. In assay [5], this molecule came in with an equilibrium dissociation constant (Kd) of 1.45 nM, a dissociation rate constant (koff) of 0.000153 s⁻¹ and an association rate constant (kon) of 106000 M⁻¹ s⁻¹. In [9], the “IC50 for inhibiting IL-36α” value came out at 0.195 nM, the “IC50 for inhibiting IL-36β” value amounted to 0.0961 nM and the “IC50 for inhibiting IL-36γ” value turned out to be 0.608 nM.
